Assay results published in patent US12233132B2, “Polyoxazoline-lipid conjugates and lipid nanoparticles and pharmaceutical compositions including same” (Serina Therapeutics, Inc., priority 2021, dated 2025).

Assays:
[1] = Hydrolysis kinetics of POZ-lipid conjugates in rat plasma; format: in vitro ADME; settings: 50% rat plasma diluted in PBS, 37° C.
Description: (§1) These solutions were spiked into the PBS or rat or human plasma media and allowed to incubate at 37° C. Samples were removed from hydrolysis media at different time intervals and quenched by addition of chilled 0.2% formic acid in methanol. […] The POZ-lipid conjugates were detected by UV absorption at 210 nm, and its breakdown and degradation metabolites were detected followed by mass spectrometry.

[2] = Hydrolysis kinetics of POZ-lipid conjugates in human plasma; format: in vitro ADME; settings: for Half-Life 50% Human Plasma: 50% human plasma diluted in PBS, 37° C.; for rate of hydrolysis in plasma, ester versus ether linkages: compared with ether linkages (Compounds 17a, 17b and 17c)
Description: as §1

Row | Substance | Half-Life 50% Rat Plasma [1] | Half-Life 50% Human Plasma [2] | rate of hydrolysis in plasma, ester versus ether linkages [2]
1 | PEOZ 2K DMG-(triazole-2-propionate) [Compound 19b] | 1 h | 5 h | faster rate
2 | PEOZ-(triazole-3-propionyl-DMG) 2K [Compound 19c] | <1 h | 7 h | faster rate
